The values below come from patent US6420338B1, “Inhibition of the Src kinase family pathway as a method of treating HBV infection and hepatocellular carcinoma” (New York University Medical Center, priority 1997, dated 2002).

The test system of one experiment is WHV. Put plainly: WHV replication in Chang cells, Southern blot of intracellular core-associated viral DNA. The format is cell-based, Woodchuck Hepatitis B Virus. Conditions: Chang cells co-transfected with wtWHV; 3 days post-transfection. As for the experimental part: FIG. 7. WHx requires activation of Src family kinase for WHV replication. Chang cells were co-transfected with 20 μg PCWHV, wtWHV, wtWHV and RasDN (dominant-negative) (10 μg), or wtWHV and Csk (10 μg). Three days post-transfection viral core-associated DNA was isolated, purified, and subjected to Southern blot analysis using a full-length ^32P-labeled WHV genomic probe.
Chang cells were transfected with infectious WHV clones, (2×10 cm plates) were washed twice with PBS and lysed in 500 μl lysis buffer/10 cm plate (20 mM Tris HCl pH 7.5, 1 mM EDTA, 100 mM NaCl, 0.5% NP-40) for 10-15 minutes. Lysates were centrifuged at 12,000×g for 30 minutes, MgCl2 was adjusted to 10 mM, DNAseI (Boehringer Mannheim) was added to 20 U /ml and the lysates were incubated at 37° C. for 2 hours. Following DNAse I treatment, the lysates were centrifuged for 5 min at 12,000×g, layered onto a 20% sucrose cushion (300 μl of 20% sucrose in 20 mM Tris HCl pH 8.0, 150 mM NaCl) and centrifuged for 178,000×g for 3 hours at 20° C. […]
Chang cells were co-transfected with plasmids encoding either wtWHV, pCWHV, wtWHV and RasDN, or wtWHV and Csk, intracellular core-associated viral DNA was isolated 3 days post-transfection, and purified viral DNA analyzed by Southern blot hybridization as described above (FIG. 7).

A further experiment relates to MAP kinase (ERK2). In words: MAP kinase (ERK2) immunoprecipitation MBP kinase assay in Chang cells expressing HBx. The format is cell-based.

B1: Csk: Csk (carboxyl-terminal Src kinase), a specific physiologic inhibitor of Src kinase, expressed from a CMV promoter plasmid (protein, UniProt P41240 2-450, looked up)
Tyrosine-protein kinase CSK: SAIQAAWPSGTECIAKYNFHGTAEQDLPFCKGDVLTIVAVTKDPNWYKAKNKVGREGIIPANYVQKREGVKAGTKLSLMPWFHGKITREQAERLLYPPETGLFLVRESTNYPGDYTLCVSCDGKVEHYRIMYHASKLSIDEEVYFENLMQLVEHYTSDADGLCTRLIKPKVMEGTVAAQDEFYRSGWALNMKELKLLQTIGKGEFGDVMLGDYRGNKVAVKCIKNDATAQAFLAEASVMTQLRHSNLVQLLGVIVEEKGGLYIVTEYMAKGSLVDYLRSRGRSVLGGDCLLKFSLDVCEAMEYLEGNNFVHRDLAARNVLVSEDNVAKVSDFGLTKEASSTQDTGKLPVKWTAPEALREKKFSTKSDVWSFGILLWEIYSFGRVPYPRIPLKDVVPRVEKGYKMDAPDGCPPAVYEVMKNCWHLDAAMRPSFLQLREQLEHIKTHELHL
With B1, in the experiment on WHV, the “effect on WHV replication (viral DNA replicative intermediates)” value is on record as “completely abolished”. Further, in the experiment on MAP kinase (ERK2) (Chang cells co-expressing HBx, serum-starved in 0.5% CS for 24 hours), the “effect on HBx activation of ERK2” value was “impaired”. Further, in the experiment with MAP kinase (ERK2) (Chang cells co-transfected with HBx, serum-starved 20 hours, 2% serum restored for 2 hours), the “effect on HBx-induced activation of MAP kinase (MBP phosphorylation)” value is reported as “abolished”. The “effect on activation of MAP kinase by insulin” value in the experiment with MAP kinase (ERK2) (Chang cells, overexpression, insulin stimulation) is given as “only slightly impaired”.
